Data on 1 molecule can be found in patent US20190352405A1 (I MAB BIOPHARMA US, published 2019).

For assay [1], the target named is T1, PD-L1 expressed on Raji cells (PDL1-Raji cells) (UniProt Q9NZQ7 19-290, limits assumed).
T1 construct: whole, on cells; also called mammalian expressed PD-L1
The experiment in a line: FACS on PDL1-Raji cells, Alexa 488 anti-human IgG secondary antibody, MFI; the EC50 table has no unit, nM is taken from the x axis (Log [Conc.] / nM). How it is done:
After washing by FACS buffer (PBS with 2% FBS), the Alexa 488-anti-human IgG antibody was added to each well and incubated at RT for 1 hour. The MFI of Alexa 488 were evaluated by FACSAriaIII.

Assay [2] deals with T2, IL7 receptor (IL7R) on human primary CD4+ T cells (human, UniProt P16871 21-459).
T2 construct: whole, on cells; Native receptor on cells; also called surface IL7R; CD127 (IL7Ra)
T2 sequence (looked up): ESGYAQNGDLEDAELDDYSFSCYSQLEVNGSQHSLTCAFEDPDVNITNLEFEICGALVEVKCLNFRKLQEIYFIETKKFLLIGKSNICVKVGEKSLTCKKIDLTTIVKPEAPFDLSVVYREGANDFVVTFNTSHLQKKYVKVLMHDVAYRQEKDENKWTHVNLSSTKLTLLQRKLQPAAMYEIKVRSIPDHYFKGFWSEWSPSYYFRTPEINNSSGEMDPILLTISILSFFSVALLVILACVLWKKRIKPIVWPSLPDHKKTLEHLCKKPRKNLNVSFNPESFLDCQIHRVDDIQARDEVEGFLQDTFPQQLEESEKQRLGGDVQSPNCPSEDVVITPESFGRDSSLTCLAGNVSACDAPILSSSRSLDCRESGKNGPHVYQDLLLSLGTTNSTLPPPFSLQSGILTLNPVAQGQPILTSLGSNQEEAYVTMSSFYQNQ
The experiment in a line: FACS on human primary CD4+ T cells, 4 °C for 30 min, PE anti-human Fc secondary antibody, MFI; fit value printed for a nearly flat control curve; the EC50 column has no unit, nM is taken from the x axis (Log [Conc.] / nM). Here is the method:
PE-conjugated anti-human Fc secondary antibody were used to detect the fusion molecules that bound to the IL7R of CD4⁺ T cells by FACS. […] For ligation-mediated receptor internalization assay, human primary CD4⁺ T cells were cocultured with fusion molecules at 37° C. for 15 mins. PE-cy7-conjugated-anti-CD127 (IL7Ra) antibody was used to detect the surface IL7R by FACS.

Assay [3] has as its target T3, recombinant PD-L1 protein (human PD-L1-his taq) (human, UniProt Q9NZQ7 19-238).
T3 construct: also called human PD-L1-his taq protein; his-PDL1; not shown: his tag
The experiment in a line: SPR (Biacore T200), antibody captured by anti-human Fc on CM5 chip, PD-L1-his as analyte. How it is done: A series of dilutions of human PD-L1-his taq protein were injected over captured antibody for 3 mins at a flow rate of […]. The antigen was allowed to dissociate for 900s. All the experiments were carried out on a Biacore T200. Data analysis was carried out using Biacore T200 evaluation software.

T3 sequence (Q9NZQ7 19-238 limits assumed): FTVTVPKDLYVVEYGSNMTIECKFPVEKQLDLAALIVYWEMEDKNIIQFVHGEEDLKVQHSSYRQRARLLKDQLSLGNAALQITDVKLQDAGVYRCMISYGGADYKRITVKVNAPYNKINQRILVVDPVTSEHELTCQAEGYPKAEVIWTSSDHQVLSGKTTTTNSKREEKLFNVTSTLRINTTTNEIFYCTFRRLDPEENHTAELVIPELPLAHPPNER
T1 sequence (Q9NZQ7 19-290 limits assumed): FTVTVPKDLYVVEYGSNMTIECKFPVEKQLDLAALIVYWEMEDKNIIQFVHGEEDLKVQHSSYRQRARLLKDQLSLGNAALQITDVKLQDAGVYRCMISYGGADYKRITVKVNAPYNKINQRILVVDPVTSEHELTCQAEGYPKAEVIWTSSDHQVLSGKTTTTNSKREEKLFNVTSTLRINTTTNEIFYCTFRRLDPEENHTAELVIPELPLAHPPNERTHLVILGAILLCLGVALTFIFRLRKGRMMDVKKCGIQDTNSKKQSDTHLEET

B1: Anti-PDL1 mAb (antibody, V domains shown)
VH: EVQLVESGGGLVQPGGSLRLSCAASGFTFSSYDMSWVRQAPGKSLEWVATISDAGGYIYYSDSVKGRFTISRDNAKNSLYLQMNSLRDEDTAVYICAREFGKRYALDYWGQGTTVTVSS
VL: DIQMTQSPSSLSASVGDRVTITCKASQDVTPAVAWYQQKPGKAPKLLIYSTSSRYTGVPSRFSGSGSGTDFTFTISSLQPEDIATYYCQQHYTTPLTFGQGTKLEIK
notes: also called anti-PDL1 monoclonal antibody; anti-PDL1 antibody
Molecule B1 showed an EC50 in assay [1] of 7.99 nM. In addition, the concentration for a half-maximal effect (EC50) in assay [2] was 35 nM. For the same molecule, in assay [3], the Kd was 2.09 nM, the koff worked out at 0.000178 s⁻¹ and the kon worked out at 85000 M⁻¹ s⁻¹.
